Article PMC3771946

Legend:
Test in all cases: co-IP
[1] = target: Cx43-F268A+Y286H-GFP (S2+3) (rat) (UniProt P08050)
[2] = target: Cx43-Y230H+F268A+Y286H-GFP (S1+2+3) (rat) (UniProt P08050)
[3] = target: Cx43-Y230H+ΔY265AY+ΔP283PGYKLV-GFP (S1+2+3) (rat) (UniProt P08050)
[4] = target: Cx43-ΔY265AY+ΔP283PGYKLV-GFP (S2+3) (rat) (UniProt P08050)
[5] = target: untagged Cx43-F268A+Y286H (S2+3) (rat) (UniProt P08050)
[6] = target: untagged Cx43-Y230H+F268A+Y286H (S1+2+3) (rat) (UniProt P08050)
[7] = target: untagged Cx43-Y230H+ΔY265AY+ΔP283PGYKLV (S1+2+3) (rat) (UniProt P08050)
[8] = target: untagged Cx43-ΔY265AY+ΔP283PGYKLV (S2+3) (rat) (UniProt P08050)

Measured: amount coprecipitated, % of wild type, with m16 (% of wild type)

clathrin (from UniProt Q00610 1-1675) (complex)
< 10: [1] | [2] | [3] | [4] | [5] | [6] | [7] | [8]
